# Results: paper PMC7525159
# Target: T1, RegX3 (K204A) K204A (UniProt P9WGL9)
# T1 sequence: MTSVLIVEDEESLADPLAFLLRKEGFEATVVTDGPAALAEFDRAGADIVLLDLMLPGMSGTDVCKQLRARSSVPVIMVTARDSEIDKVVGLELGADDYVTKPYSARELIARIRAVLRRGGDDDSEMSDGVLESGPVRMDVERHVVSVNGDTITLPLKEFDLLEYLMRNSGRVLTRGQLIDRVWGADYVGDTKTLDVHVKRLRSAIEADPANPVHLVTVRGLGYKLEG
# Experiment: EMSA
sequence,measurement,value
CAGCTTTCTTTGCGCTAATTTAGGCGTACTCACAGCATGGGATGACCTGGGCAAATACCTCATCTATCCGCCCGGGATAGCATGCGGCGCAGGCGGCGAATGCGGCGCAGATGAACGCAGAGTTAATTCTCACGCAACGGTCCGATATTG (double strand) [whiB3 promoter -307 to -157 (WT)],binding,no binding
